Reference: PMC5156837

Biological target: GST-TOC34 fusion protein (Arabidopsis thaliana) (UniProt Q38906)
UniProt Q38906, sequence (Q38906 whole entry, the tested form may be a part): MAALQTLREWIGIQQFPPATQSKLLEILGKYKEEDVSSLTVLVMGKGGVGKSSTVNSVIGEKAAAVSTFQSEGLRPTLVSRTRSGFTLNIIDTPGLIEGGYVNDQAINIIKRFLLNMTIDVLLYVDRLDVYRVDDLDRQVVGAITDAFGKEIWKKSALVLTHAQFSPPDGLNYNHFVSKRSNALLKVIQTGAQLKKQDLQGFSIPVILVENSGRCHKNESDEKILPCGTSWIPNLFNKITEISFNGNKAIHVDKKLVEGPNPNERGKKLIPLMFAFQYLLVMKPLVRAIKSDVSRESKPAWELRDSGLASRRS

A GTPase activity of TOC34 (free phosphate from GTP, 27°C, 30 min) with CBL10 and 5 mM CaCl2 of 0.5 fold was found for “CBL10-cMyc (thrombin-cleaved from GST-CBL10-cMyc) (from UniProt Q7FRS8 1-256)” in this work.
